Sequences and labels used below:
T1: PRIM2 (human, UniProt P49643-1 1-509)
T1 sequence (looked up): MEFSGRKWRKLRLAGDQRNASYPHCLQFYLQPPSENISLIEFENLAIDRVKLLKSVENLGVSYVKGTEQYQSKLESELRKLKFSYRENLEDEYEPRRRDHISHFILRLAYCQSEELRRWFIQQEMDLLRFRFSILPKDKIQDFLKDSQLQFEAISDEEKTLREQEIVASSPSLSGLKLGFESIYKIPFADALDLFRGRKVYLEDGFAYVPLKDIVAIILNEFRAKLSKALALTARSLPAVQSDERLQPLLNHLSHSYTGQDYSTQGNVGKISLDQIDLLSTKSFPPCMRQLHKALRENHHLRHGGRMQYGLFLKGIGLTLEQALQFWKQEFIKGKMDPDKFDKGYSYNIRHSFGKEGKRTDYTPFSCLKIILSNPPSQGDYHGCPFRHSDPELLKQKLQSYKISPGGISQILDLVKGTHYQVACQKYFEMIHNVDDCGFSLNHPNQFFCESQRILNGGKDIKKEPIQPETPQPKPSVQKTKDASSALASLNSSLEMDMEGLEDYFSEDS

T2: POLA1 (human, UniProt P09884 1-1462)
T2 sequence (looked up): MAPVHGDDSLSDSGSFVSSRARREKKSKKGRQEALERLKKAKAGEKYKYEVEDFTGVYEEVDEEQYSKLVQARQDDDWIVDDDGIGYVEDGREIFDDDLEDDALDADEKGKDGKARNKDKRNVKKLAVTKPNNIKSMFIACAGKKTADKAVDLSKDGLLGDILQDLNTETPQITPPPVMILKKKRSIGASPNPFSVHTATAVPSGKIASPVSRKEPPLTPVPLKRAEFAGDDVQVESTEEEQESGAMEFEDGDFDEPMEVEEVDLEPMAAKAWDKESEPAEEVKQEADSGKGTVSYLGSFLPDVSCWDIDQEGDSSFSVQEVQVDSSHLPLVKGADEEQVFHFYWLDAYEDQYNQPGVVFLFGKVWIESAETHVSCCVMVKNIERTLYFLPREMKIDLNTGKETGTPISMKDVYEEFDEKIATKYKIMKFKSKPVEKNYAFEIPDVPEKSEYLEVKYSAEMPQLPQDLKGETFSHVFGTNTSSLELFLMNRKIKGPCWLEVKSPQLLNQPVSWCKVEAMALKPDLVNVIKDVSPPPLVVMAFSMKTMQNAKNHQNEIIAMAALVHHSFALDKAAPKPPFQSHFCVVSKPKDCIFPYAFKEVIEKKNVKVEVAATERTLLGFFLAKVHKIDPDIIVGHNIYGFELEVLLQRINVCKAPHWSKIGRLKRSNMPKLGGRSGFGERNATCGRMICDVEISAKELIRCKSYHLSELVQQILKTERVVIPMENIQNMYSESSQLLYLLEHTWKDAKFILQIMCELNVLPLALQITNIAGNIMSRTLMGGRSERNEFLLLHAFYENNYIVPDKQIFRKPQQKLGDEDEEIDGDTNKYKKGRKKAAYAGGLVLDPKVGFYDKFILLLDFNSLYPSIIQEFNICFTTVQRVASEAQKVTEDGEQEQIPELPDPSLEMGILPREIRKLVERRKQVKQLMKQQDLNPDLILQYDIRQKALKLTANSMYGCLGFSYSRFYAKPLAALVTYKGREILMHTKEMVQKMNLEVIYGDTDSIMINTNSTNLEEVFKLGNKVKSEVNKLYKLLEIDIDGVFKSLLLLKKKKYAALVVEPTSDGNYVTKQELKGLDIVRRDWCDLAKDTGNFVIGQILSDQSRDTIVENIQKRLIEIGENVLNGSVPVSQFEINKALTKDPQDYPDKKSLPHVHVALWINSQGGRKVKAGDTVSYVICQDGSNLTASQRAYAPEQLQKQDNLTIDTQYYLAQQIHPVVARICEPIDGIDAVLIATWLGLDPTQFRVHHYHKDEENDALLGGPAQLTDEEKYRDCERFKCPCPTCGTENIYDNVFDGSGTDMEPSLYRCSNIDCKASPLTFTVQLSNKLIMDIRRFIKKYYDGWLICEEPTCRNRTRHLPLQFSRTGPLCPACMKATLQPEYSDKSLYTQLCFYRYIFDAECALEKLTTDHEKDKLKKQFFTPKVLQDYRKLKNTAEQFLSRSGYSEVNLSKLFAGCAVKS

B1: PRIM1 (natural protein, human)
chain: ETFDPTELPELLKLYYRRLFPYSQYYRWLNYGGVIKNYFQHREFSFTLKDDIYIRYQSFNNQSDLEKEMQKMNPYKIDIGAVYSHRPNQHNTVKLGAFQAQEKELVFDIDMTDYDDVRRCCSSADICPKCWTLMTMAIRIIDRALKEDFGFKHRLWVYSGRRGVHCWVCDESVRKLSSAVRSGIVEYLSLVKGGQDVKKKVHLSEKIHPFIRKSINIIKKYFEEYALVNQDILENKESWDKILALVPETIHDELQQSFQKSHNSLQRWEHLKKVASRYQNNIKNDKYGPWLEWEIMLQYCFPRLDINVSKGINHLLKSPFSVHPKTGRISVPIDLQKVDQFDPFTVPTISFICRELDAISTNEEEKEENEAESDVKHRTRDYKKTSLAPYVKVFEHFLENLDKSRKGELLKKSDLQKDF
B2: CTC1 (natural protein, human, UniProt Q2NKJ3 1-1217, looked up)
chain: MAAGRAQVPSSEQAWLEDAQVFIQKTLCPAVKEPNVQLTPLVIDCVKTVWLSQGRNQGSTLPLSYSFVSVQDLKTHQRLPCCSHLSWSSSAYQAWAQEAGPNGNPLPREQLLLLGTLTDLSADLEQECRNGSLYVRDNTGVLSCELIDLDLSWLGHLFLFPRWSYLPPARWNSSGEGHLELWDAPVPVFPLTISPGPVTPIPVLYPESASCLLRLRNKLRGVQRNLAGSLVRLSALVKSKQKAYFILSLGRSHPAVTHVSIIVQVPAQLVWHRALRPGTAYVLTELRVSKIRGQRQHVWMTSQSSRLLLLKPECVQELELELEGPLLEADPKPLPMPSNSEDKKDPESLVRYSRLLSYSGAVTGVLNEPAGLYELDGQLGLCLAYQQFRGLRRVMRPGVCLQLQDVHLLQSVGGGTRRPVLAPCLRGAVLLQSFSRQKPGAHSSRQAYGASLYEQLVWERQLGLPLYLWATKALEELACKLCPHVLRHHQFLQHSSPGSPSLGLQLLAPTLDLLAPPGSPVRNAHNEILEEPHHCPLQKYTRLQTPSSFPTLATLKEEGQRKAWASFDPKALLPLPEASYLPSCQLNRRLAWSWLCLLPSAFCPAQVLLGVLVASSHKGCLQLRDQSGSLPCLLLAKHSQPLSDPRLIGCLVRAERFQLIVERDVRSSFPSWKELSMPGFIQKQQARVYVQFFLADALILPVPRPCLHSATPSTPQTDPTGPEGPHLGQSRLFLLCHKEALMKRNFCVPPGASPEVPKPALSFYVLGSWLGGTQRKEGTGWGLPEPQGNDDNDQKVHLIFFGSSVRWFEFLHPGQVYRLIAPGPATPMLFEKDGSSCISRRPLELAGCASCLTVQDNWTLELESSQDIQDVLDANKSLPESSLTDLLSDNFTDSLVSFSAEILSRTLCEPLVASLWMKLGNTGAMRRCVKLTVALETAECEFPPHLDVYIEDPHLPPSLGLLPGARVHFSQLEKRVSRSHNVYCCFRSSTYVQVLSFPPETTISIPLPHIYLAELLQGGQSPFQATASCHIVSVFSLQLFWVCAYCTSICRQGKCTRLGSTCPTQTAISQAIIRLLVEDGTAEAVVTCRNHHVAAALGLCPREWASLLDFVQVPGRVVLQFAGPGAQLESSARVDEPMTMFLWTLCTSPSVLRPIVLSFELERKPSKIVPLEPPRLQRFQCGELPFLTHVNPRLRLSCLSIRESEYSSSLGILASSC
B3: CTC1–STN1–TEN1 (CST) complex (complex, human)
chain 1: B2 chain
chain 2: QPGSSRCEEETPSLLWGLDPVFLAFAKLYIRDILDMKESRQVPGVFLYNGHPIKQVDVLGTVIGVRERDAFYSYGVDDSTGVINCICWKKLNTESVSAAPSAARELSLTSQLKKLQETIEQKTKIEIGDTIRVRGSIRTYREEREIHATTYYKVDDPVWNIQIARMLELPTIYRKVYDQPFHSSALEKEEALSNPGALDLPSLTSLLSEKAKEFLMENRVQSFYQQELEMVESLLSLANQPVIHSASSDQVNFKKDTTSKAIHSIFKNAIQLLQEKGLVFQKDDGFDNLYYVTREDKDLHRKIHRIIQQDCQKPNHMEKGCHFLHILACARLSIRPGLSEAVLQQVLELLEDQSDIVSTMEHYYTAF
chain 3: LPKPGTYYLPWEVSAGQVPDGSTLRTFGRLCLYDMIQSRVTLMAQHGSDQHQVLVCTKLVEPFHAQVGSLYIVLGELQHQQDRGSVVKARVLTCVEGMNLPLLEQAIREQRLYKQERGGSQ
B4: STN1 (natural protein, human)
chain: B3 chain 2

Assay in all cases: cryo-EM structure
One test deals with T1, PRIM2.
The next test deals with T2, POLA1.
The target in test [1] is DNA polymerase-α–primase (Polα–primase) complex, PRIM1–PRIM2–POLA1–POLA2, full-length (human, UniProt P09884 1-1462; Q14181-1 1-598; P49642 2-420; P49643-1 1-509).
For the test “PRIM1”, the target named is B1.

The values below come from article PMC10268231 (Nature, 2021).

Sequence of DNA polymerase-α–primase (Polα–primase) complex, PRIM1–PRIM2–POLA1–POLA2, full-length (Q14181 whole entry, one chain of several): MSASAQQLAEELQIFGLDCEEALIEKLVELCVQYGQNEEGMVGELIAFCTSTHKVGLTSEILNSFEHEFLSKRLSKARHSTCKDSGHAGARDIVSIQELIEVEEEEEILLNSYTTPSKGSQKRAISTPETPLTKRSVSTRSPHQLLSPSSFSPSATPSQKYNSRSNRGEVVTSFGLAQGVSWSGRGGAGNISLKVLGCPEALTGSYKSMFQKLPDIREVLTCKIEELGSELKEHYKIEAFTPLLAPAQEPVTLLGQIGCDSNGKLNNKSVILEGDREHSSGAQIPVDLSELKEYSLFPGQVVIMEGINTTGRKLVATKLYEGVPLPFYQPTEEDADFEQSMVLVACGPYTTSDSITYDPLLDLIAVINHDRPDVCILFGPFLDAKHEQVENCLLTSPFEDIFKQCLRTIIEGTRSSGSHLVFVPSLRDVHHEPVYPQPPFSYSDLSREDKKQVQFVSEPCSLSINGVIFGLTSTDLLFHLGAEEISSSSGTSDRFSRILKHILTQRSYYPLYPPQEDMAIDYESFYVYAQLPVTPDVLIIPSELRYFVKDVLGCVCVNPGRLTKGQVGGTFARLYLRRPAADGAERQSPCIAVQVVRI

For B1, in the test with PRIM2, the binding result is reported as “binds”.
Regarding B2, in the test with POLA1, the binding result is “binds”.
Broadly, the stoichiometry N is the number of molecules, sites or subunits per partner or assembly. B3: the “stoichiometry N” value in test [1] came to 1.
For B4, in the test with PRIM1, the binding result was “binds”.
